Experimental data as given in article PMC2897767, “Two Distinct Mechanisms for Actin Capping Protein Regulation—Steric and Allosteric Inhibition” (PLoS Biology, 2010).

Biological target: GST-V-1 (human) (UniProt P58546)
Test: SPR; GST-fusion protein (GST-V-1, GST-CA or GST-CD) immobilised on a CM5 chip via anti-GST antibodies (up to 200 RU), CP perfused at 20 µl/min; 20°C; 50 mM KCl, 1 mM MgCl2, 0.005% Tween-20, 10 mM imidazole pH 7.0; 1:1 fit, KD from the kinetic rate constants (steady state for several fast-dissociating mutants)

GST-V-1 (human), sequence (P58546 whole entry, the tested form may be a part): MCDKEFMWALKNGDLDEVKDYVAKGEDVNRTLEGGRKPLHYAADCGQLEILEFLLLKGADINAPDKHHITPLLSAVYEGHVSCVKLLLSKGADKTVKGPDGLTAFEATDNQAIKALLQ

“CP with mutations of residues which form the “basic triad” (CP (α) Lys256, Arg260, Arg266)” was tested, and the fold reduction of the affinity against the wild type proteins was > 25 fold.
